The target in experiment [1] is Protein A (ready-to-use protein A sensortips, Fortebio) (Staphylococcus aureus) (UniProt P38507). Briefly: Octet QK, protein A sensor tips, against an IgG standard curve; A280 concentration of the sample 3818 µg/ml. (In general: Biolayer interferometry detects binding as a change in optical thickness at a sensor tip.)
Experiment [2] has the same target. The experiment is described as follows: ratio of the concentrations by A280 and by Octet protein A sensor tips.
Experiment [3] addresses C1q from pooled human serum (human) (UniProt P02745). Briefly: C1q binding ELISA; antibody dilution series coated, 3% pooled human serum as C1q source, anti-C1q detection. (In general: In an ELISA, binding on a coated surface is turned into a signal by an enzyme label.)
In experiment [4] the target is FcγRIIIa receptor, V158 (high affinity) variant, on Jurkat effector cells (UniProt P08637). Briefly: cell-based or functional assay.
Experiment [5] has as its target IgG1-005-E345R/E430G/S440Y (human). The experiment is described as follows: dynamic light scattering, 2.86 mg/mL in PBS pH 7.4; Fc:Fc self-oligomerization.
Experiment [6] has the same target. Briefly: HP-SEC with multiple angle light scattering; Fc:Fc self-oligomerization. On the technique in general: SEC sorts molecules by how far they enter the pores of the column.
Experiment [7] addresses Protein A (ready-to-use protein A sensortips, Fortebio) (Staphylococcus aureus) (UniProt P38507). Briefly: Octet QK, protein A sensor tips, against an IgG standard curve; A280 concentration of the sample 2905 µg/ml.
In experiment [8] the target is IgG1-005-E345R/E430G/S440K (human). The experiment is described as follows: HP-SEC of an equimolar mixture, PBS pH 7.4; Fc:Fc hetero-oligomerization.
Experiment [9] concerns the target IgG1-005-E345R/E430G/Y436I/S440K (human). Described as above.

For “HuMab 005 (wild type IgG1-005), fully human IgG1,κ antibody against human CD38”, the Octet-Protein A (apparent IgG concentration) in experiment [1] turned out to be 3620 µg/mL. In addition, the A280/Protein A × 100 (%) in experiment [2] was found to be 0.95%. Besides, in experiment [3], the EC50 – broadly, the concentration needed to bring the measured effect to its halfway point – is 1.55 µg/mL. Also, in [4], the EC50 (ADCC reporter assay) is 0.0095 µg/mL and the Maximal signal (ADCC reporter assay) was found to be 335000 RLU.

For HuMab 005 mutant E345R (antibody), the EC50 in experiment [3] worked out at 0.836 µg/mL.

For the substance IgG1-005-E345R/E430G/S440Y (antibody), in experiment [5], the apparent MW (DLS) amounted to 876 kDa and the monomeric subunits per complex (DLS) (monomeric subunits) was found to be 6.17. In addition, in experiment [6], the apparent average MW of the multimeric peak (MALS) was found to be 772 kDa and the monomeric subunits per complex (MALS) (monomeric subunits) amounted to 5.4. For the same substance, the A280/Protein A × 100 (%) in [2] was 0.71%. The Octet-Protein A (apparent IgG concentration) in experiment [7] stood at 2050 µg/mL. In experiment [3], this substance showed an EC50 of 0.52 µg/mL. In experiment [4], this substance gave an EC50 (ADCC reporter assay) of 0.036 µg/mL and a Maximal signal (ADCC reporter assay) of 394000 RLU.

Take “IgG1-005-E345R/E430G/K439E/S440Y (antibody)”: the % multimers (HP-SEC) in [8] was found to be 65%; in [9], 93%.
